Patent US6670189B2, “Fumonisin detoxification compositions and methods” (priority 1994, dated 2003)

B1: Protease K: protease used to treat the culture filtrate (protein, UniProt P06873 106-384, looked up)
Proteinase K: AAQTNAPWGLARISSTSPGTSTYYYDESAGQGSCVYVIDTGIEASHPEFEGRAQMVKTYYYSSRDGNGHGTHCAGTVGSRTYGVAKKTQLFGVKVLDDNGSGQYSTIIAGMDFVASDKNNRNCPKGVVASLSLGGGYSSSVNSAAARLQSSGVMVAVAAGNNNADARNYSPASEPSVCTVGASDRYDRRSSFSNYGSVLDIFGPGTSILSTWIGGSTRSISGTSMATPHVAGLAAYLMTLGKTTAASACRYIADTANKGDLSNIPFGTVNLLAYNNYQA
B2: Fumonisin esterase (protein)
chain: APTVKIDAGMVVGTTTTVPGTTATVSEFLGVPFAASPTRFAPPTRPVPWSTPLQATAYGPACPQQFNYPEELREITMAWFNTPPPSAGESEDCLNLNIYVPGTENTNKAVMVWIYGGALEYGWNSFHLYDGASFAANQDVIVVTINYRTNILGFPAAPQLPITQRNLGFLDQRFALDWVQRNIAAFGGDPRKVTIFGQSAGGRSVDVLLTSMPHNPPFRAAIMESGVANYNFPKGDLSEPWNTTVQALNCTTSIDILSCMRRVDLATLMNTIEQLGLGFEYTLDNVTVVYRSETARTTGDIARVPVLVGTVANDGLLFVLGENDTQAYLEEAIPNQPDLYQTLLGAYPIGSPGIGSPQDQIAAIETEVRFQCPSAIVAQDSRNRGIPSWRYYYNATFENLELFPGSEVYHSSEVGMVFGTYPVASATALEAQTSKYMQGAWAAFAKNPMNGPGWKQVPNVAALGSPGKAIQVDVSPATIDQRCALYTHYYTELGTIAPRTF

What was measured:
FB1 Hydrolase activity = test: Effect of various treatments on modification of FB1 by E. spinifera esterase (culture filtrates); type: biochemical, Exophiala spinifera; design: key: − = no hydrolysis; ± = trace amount of hydrolysis; + = incomplete hydrolysis; ++ = incomplete hydrolysis; +++ = complete hydrolysis; details: treatment 0.01 mg/ml, 16 hr, 37° C., pH 5.2; then incubated with FB1 overnight at 37° C.
Protocol: (§1) Analytical thin-layer chromatography was carried out on 100% silanized C18 silica plates (Sigma #T-7020; 10×10 cm; 0.1 mm thick) by a modification of the published method of Rottinghaus (Rottinghaus, G. E., Coatney, C. E., and Minor, H. C., A rapid, sensitive thin layer chromatography procedure for the detection of fumonisin b-1 and b-2, J Vet Diagn Invest, 4, 326 (1992), and herein incorporated by reference).
(§2) Sample lanes were pre-wet with methanol to facilitate sample application. After application of from 0.1 to 2 μl of aqueous sample, the plates were air-dried and developed in MeOH:4% KCl (3:2) or MeOH:0.2 M KOH (3:2) and then sprayed successively with 0.1 M sodium borate (pH 9.5) and fluorescamine (0.4 mg/ml in acetonitrile). Plates were air-dried and viewed under long wave UV.
The esterase isolated from E. spinifera was then subjected to other treatments, including proteases, to determine whether and how the enzyme would function in various environments.

[1] = Hydrolysis of fumonisin B1 by commercial esterases and hydrolases; type: biochemical; design: key: − = no hydrolysis; ± = trace amount of hydrolysis; + = incomplete hydrolysis; ++ = incomplete hydrolysis; +++ = complete hydrolysis; details: assay pH 5.2; overnight at 37° C. with 1 mg/ml fumonisin
Protocol: as §1, §2
The fumonisin esterase isolated from E. spinifera and R. atrovirens was compared with other known esterases from various sources as supplied by commercial vendors.

Molecule	FB1 Hydrolase activity (FB1 Hydrolase activity)	FB1 hydrolysis [1]
B1	+	–
B2	–	+++
